Measurements as given in article PMC4809639.

T1: FGF14 (1b isoform), wild type, fused to split firefly luciferase fragments (UniProt Q92915)
T1 sequence: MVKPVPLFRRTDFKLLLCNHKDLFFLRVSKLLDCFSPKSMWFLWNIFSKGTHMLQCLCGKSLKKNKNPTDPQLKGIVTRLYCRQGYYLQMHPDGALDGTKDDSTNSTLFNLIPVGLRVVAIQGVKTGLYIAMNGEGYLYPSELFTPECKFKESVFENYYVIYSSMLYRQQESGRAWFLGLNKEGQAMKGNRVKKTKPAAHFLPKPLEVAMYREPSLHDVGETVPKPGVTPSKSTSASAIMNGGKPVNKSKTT


Tests used:
Assay in all cases: split reporter
[1] = target: FGF14^Y153N/V155N (1b isoform) fused to split firefly luciferase fragments
[2] = target: T1, FGF14 (1b isoform), wild type, fused to split firefly luciferase fragments
[3] = target: T1, FGF14 (1b isoform), wild type, fused to split firefly luciferase fragments; remark: listed apart in the source
[4] = target: FGF14^Y153N/V155N (1b isoform) fused to split firefly luciferase fragments; conditions: split reporter (BiFC, NanoBiT)

% maximal luminescence against the FGF14:FGF14 dimer [1] [%]	% maximal luminescence against the FGF14:FGF14 dimer [2] [%]	% maximal luminescence of CLuc-FGF14:FGF14-NLuc left with 10 uM peptide [3] [%]	Molecule	% maximal luminescence of the FGF14^Y153N/V155N:FGF14 heterodimer left with FLPK [4] [%]
136	109	–	FGF14^Y153N/V155N (1b isoform) fused to split firefly luciferase fragments (natural protein)	–
–	–	75	Ac-FLPK-NH2 [Ac-FLPK-NH2]	90.8 ± 5.1
